To fix the notation:
B1: [^19F]-ACI-89-Kϕ (peptide)
peptide: [dP][dS][dH][dY][dR][dH][dI][dS][dP][dA][dQ][dK][dK](FITC′)
modifications: also: [19F]-4-fluorobenzoyl label, place not given here
notes: D-enantiomeric derivative of ACI-80 (D1): Q1P, V12K, added C-terminal lysine, fluorinated; also called D1-Q1P-V12K-K[^19F]ϕ; source: synthetic peptide, reacted with [^19F]-N-succinimidyl-4-fluorobenzoate (SFB), HPLC purified
B2: ACI-89-Kϕ (peptide)
peptide: [dP][dS][dH][dY][dR][dH][dI][dS][dP][dA][dQ][dK][dK](FITC′)
notes: D-enantiomeric derivative of ACI-80 (D1): Q1P, V12K, added C-terminal lysine; also called D1-Q1P-V12K-Kϕ; source: synthetic peptide (JPT Peptide Technologies GmbH, Berlin)
B3: ACI-87-Kϕ (peptide)
peptide: [dQ][dS][dH][dY][dR][dH][dI][dS][dP][dA][dQ][dK][dK](FITC′)
notes: D-enantiomeric derivative of ACI-80 (D1): V12K, added C-terminal lysine; also called D1-V12K-Kϕ; source: synthetic peptide (JPT Peptide Technologies GmbH, Berlin)
B4: ACI-80-Kϕ (peptide)
peptide: [dQ][dS][dH][dY][dR][dH][dI][dS][dP][dA][dQ][dV][dK](FITC′)
notes: D-enantiomeric peptide ACI-80 (D1), selected by mirror image phage display on aggregated Aβ1–42, with an added C-terminal lysine; also called D1-Kϕ; source: synthetic peptide (JPT Peptide Technologies GmbH, Berlin)
B5: ACI-83-Kϕ (peptide)
peptide: [dP][dS][dH][dY][dR][dH][dI][dS][dP][dA][dQ][dV][dK](FITC′)
notes: D-enantiomeric derivative of ACI-80 (D1): Q1P, added C-terminal lysine; also called D1-Q1P-Kϕ; source: synthetic peptide (JPT Peptide Technologies GmbH, Berlin)
B6: [^19F]-ACI-87-Kϕ (peptide)
peptide: [dQ][dS][dH][dY][dR][dH][dI][dS][dP][dA][dQ][dK][dK](FITC′)
modifications: also: [19F]-4-fluorobenzoyl label, place not given here
notes: D-enantiomeric derivative of ACI-80 (D1): V12K, added C-terminal lysine, fluorinated; The text says V12K was made to enable fluorination; also called D1-V12K-K[^19F]ϕ; source: synthetic peptide, reacted with [^19F]-N-succinimidyl-4-fluorobenzoate (SFB), HPLC purified
B7: ACI-86-Kϕ (peptide)
peptide: [dP][dS][dF][dY][dR][dH][dI][dS][dP][dA][dQ][dV][dK](FITC′)
notes: D-enantiomeric derivative of ACI-80 (D1): Q1P, H3F, added C-terminal lysine; also called D1-Q1P-H3F-Kϕ; source: synthetic peptide (JPT Peptide Technologies GmbH, Berlin)
B8: ACI-82-Kϕ (peptide)
peptide: [dS][dH][dY][dR][dH][dI][dS][dP][dA][dQ][dV][dK](FITC′)
notes: D-enantiomeric derivative of ACI-80 (D1): N-terminal glutamine deleted (Q1X), added C-terminal lysine; also called D1-Q1X-Kϕ; source: synthetic peptide (JPT Peptide Technologies GmbH, Berlin)
B9: [^19F]-ACI-88-Kϕ (peptide)
peptide: [dS][dH][dY][dR][dH][dI][dS][dP][dA][dQ][dK][dK](FITC′)
modifications: also: [19F]-4-fluorobenzoyl label, place not given here
notes: D-enantiomeric derivative of ACI-80 (D1): N-terminal glutamine deleted (Q1X), V12K, added C-terminal lysine, fluorinated; also called D1-Q1X-V12K-K[^19F]ϕ; source: synthetic peptide, reacted with [^19F]-N-succinimidyl-4-fluorobenzoate (SFB), HPLC purified
B10: ACI-88-Kϕ (peptide)
peptide: [dS][dH][dY][dR][dH][dI][dS][dP][dA][dQ][dK][dK](FITC′)
notes: D-enantiomeric derivative of ACI-80 (D1): N-terminal glutamine deleted (Q1X), V12K, added C-terminal lysine; also called D1-Q1X-V12K-Kϕ; source: synthetic peptide (JPT Peptide Technologies GmbH, Berlin)
B11: ACI-85-Kϕ (peptide)
peptide: [dS][dF][dY][dR][dH][dI][dS][dP][dA][dQ][dV][dK](FITC′)
notes: D-enantiomeric derivative of ACI-80 (D1): N-terminal glutamine deleted (Q1X), H3F, added C-terminal lysine; also called D1-Q1X-H3F-Kϕ; source: synthetic peptide (JPT Peptide Technologies GmbH, Berlin)

Square brackets hold non-standard residues; d marks the D form. Primed or numbered codes have the meaning given here. Ends that are not written are not given here. FITC′ = fluorescein isothiocyanate (ϕ)

T2 sequence (P05067 672-713): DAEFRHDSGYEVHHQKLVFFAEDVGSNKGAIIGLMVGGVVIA

In the first assay the target is T1, Aβ1–42 peptide film (mostly monomeric Aβ1–42) (UniProt P05067 672-713).
T1 construct: amyloid-β peptide Aβ1–42, cut from the amyloid precursor protein (APP), freshly dissolved peptide film containing mostly monomers and smaller oligomers; Same peptide as m14, not fibrillised; also called Aβ1–42 monomers; Aβ peptide film; source: bought: Bachem (lyophilized powder); HFIP film, reconstituted with 0.54% DMSO in PBS
T1 sequence (P05067 672-713): as above
Put plainly: ELISA; Aβ1–42 peptide film (mostly monomers) coated on the plate (10 µg/ml, bicarbonate-carbonate buffer pH 9.6); D-compounds from 10 µg/ml, 2 h at 37°C; detected by anti-fluorescein isothiocyanate-AP, pNPP 2.5 h. To be noted: both partners purified.
Regarding B1, the “% binding relative to ACI-80-Kϕ” value came to 243% and the “binding value (ELISA, 10 ug/mL compound)” value amounted to 1.19.
B2: the “% binding relative to ACI-80-Kϕ” value is 216% and the “binding value (ELISA, 10 ug/mL compound)” value stood at 1.06.
For B3 the same measures were 122% and 0.79.
The matching figures for B4: 100% and 0.49.
For the molecule B5, the “% binding relative to ACI-80-Kϕ” value came out at 214% and the “binding value (ELISA, 10 ug/mL compound)” value was 1.05.
The matching figures for B6: 176% and 0.86.
Take B7: the “% binding relative to ACI-80-Kϕ” value worked out at 163% and the “binding value (ELISA, 10 ug/mL compound)” value turned out to be 0.8.
For B8, the “% binding relative to ACI-80-Kϕ” value turned out to be 167% and the “binding value (ELISA, 10 ug/mL compound)” value amounted to 0.82.
For B9 the same measures were 214% and 1.05.
Turning to B10, the “% binding relative to ACI-80-Kϕ” value came to 263% and the “binding value (ELISA, 10 ug/mL compound)” value was 1.29.
The matching figures for B11: 129% and 0.63.

Another assay addresses T2, Aβ1–42 fibrils (UniProt P05067 672-713).
T2 construct: amyloid-β peptide Aβ1–42, cut from the amyloid precursor protein (APP), in fibrillar form; Aggregated (fibrillar) state of the same peptide as m15; also called fibrillar Aß1–42; Aβ fibrils; source: bought: JPT Biotech or Bachem AG (HPLC purified peptide); fibrils formed at 37°C (7 days in PBS pH 7.4 for SPR; five days in 50 mM Tris-HCl pH 7.4 for ELISA)
As to the kind of experiment: ELISA; Aβ1–42 fibrils coated on the plate (10 µg/ml, bicarbonate-carbonate buffer pH 9.6); D-compounds from 10 µg/ml, 2 h at 37°C; detected by anti-fluorescein isothiocyanate-AP, pNPP 2.5 h. The conditions noted are these: both partners purified.
In the case of B1, the “% binding relative to ACI-80-Kϕ” value was determined as 207% and the “binding value (ELISA, 10 ug/mL compound)” value worked out at 1.86.
B2: the “% binding relative to ACI-80-Kϕ” value was 165% and the “binding value (ELISA, 10 ug/mL compound)” value came out at 1.49.
For B3 the same measures were 103% and 0.93.
The matching figures for B4: 100% and 0.9.
As for B5, the “% binding relative to ACI-80-Kϕ” value was 167% and the “binding value (ELISA, 10 ug/mL compound)” value was found to be 1.5.
The matching figures for B6: 140% and 1.26.
Regarding B7, the “% binding relative to ACI-80-Kϕ” value was determined as 138% and the “binding value (ELISA, 10 ug/mL compound)” value was found to be 1.24.
For B8 the same measures were 142% and 1.28.
The matching figures for B9: 196% and 1.76.
For B10, the “% binding relative to ACI-80-Kϕ” value is 198% and the “binding value (ELISA, 10 ug/mL compound)” value stood at 1.78.
In the case of B11, the “% binding relative to ACI-80-Kϕ” value came to 111% and the “binding value (ELISA, 10 ug/mL compound)” value stood at 1.

The target of the next assay is T2, Aβ1–42 fibrils. As to the kind of experiment: SPR; Biacore 1000; Aβ1–42 fibrils (6800 RU) immobilised on a CM5 chip by amine coupling; PBS pH 7.4; analytes 50 µg/ml, 5 µl/min for 2 minutes, ambient temperature; semi-quantitative: response in % of ACI-80-Kϕ. To be noted: both partners purified.
For the molecule B1, the “Dissociation [%] (response 60 s after end of injection, relative to ACI-80-Kϕ)” value is 0% and the “Interaction [%] (maximal response during injection, relative to ACI-80-Kϕ)” value is 476%.
The matching figures for B2: 533% and 518%.
For B3 the same measures were 443% and 324%.
For B5 the same measures were 200% and 600%.
Consider B6, for which the “Dissociation [%] (response 60 s after end of injection, relative to ACI-80-Kϕ)” value was found to be 67% and the “Interaction [%] (maximal response during injection, relative to ACI-80-Kϕ)” value was 153%.
For B7 the same measures were 40% and 21%.
The matching figures for B8: 300% and 393%.
Consider B9, for which the “Dissociation [%] (response 60 s after end of injection, relative to ACI-80-Kϕ)” value came out at 1230% and the “Interaction [%] (maximal response during injection, relative to ACI-80-Kϕ)” value came to 294%.
For B10 the same measures were 667% and 365%.
The matching figures for B11: 40% and 229%.

A further assay has as its target T2, Aβ1–42 fibrils. Put plainly: SPR; Biacore T100, single-cycle mode, 25°C; Aβ1–42 fibrils immobilised on a CM5 chip by amine coupling; PBS pH 7.4, 30 µl/min; 100 to 62500 nM in fivefold steps, 60 s each; heterogeneous ligand model. To be noted: both partners purified. Background: In SPR one partner is held on a chip, and binding of the other changes the refractive index at the surface.
As for B2, the “K D1 (heterogeneous ligand model, site 1)” value was found to be 8e-06; the “K D2 (heterogeneous ligand model, site 2)” value was 3.53e-06; the “k off1 (heterogeneous ligand model, site 1)” value (“k off1” below) came out at 0.162; the “k off2 (heterogeneous ligand model, site 2)” value (from here on “k off2”) came to 0.0118. Besides, the “k on1 (heterogeneous ligand model, site 1)” value (shortened to “k on1”) is 20300 and the “k on2 (heterogeneous ligand model, site 2)” value (shortened to “k on2”) is 3340.
Turning to B3, the “K D1 (heterogeneous ligand model, site 1)” value was found to be 8.93e-06; the “K D2 (heterogeneous ligand model, site 2)” value was determined as 2.59e-05; the “k off1” value worked out at 0.00184; the “k off2” value turned out to be 0.0407. In addition, the “k on1” value is 206 and the “k on2” value was found to be 1570.
Regarding B4, the “K D1 (heterogeneous ligand model, site 1)” value amounted to 5.38e-05; the “K D2 (heterogeneous ligand model, site 2)” value was determined as 0.000115; the “k off1” value came out at 0.0252; the “k off2” value was 1.58. Moreover, the “k on1” value was 469 and the “k on2” value worked out at 13700.
Consider B10, for which the “K D1 (heterogeneous ligand model, site 1)” value worked out at 4.22e-07; the “K D2 (heterogeneous ligand model, site 2)” value was 5.95e-05; the “k off1” value stood at 0.00722; the “k off2” value was 0.0553. Moreover, the “k on1” value was found to be 17100 and the “k on2” value stood at 930.

The values above are taken from paper PMC3404088, “Development of a Small D-Enantiomeric Alzheimer’s Amyloid-β Binding Peptide Ligand for Future In Vivo Imaging Applications” (PLoS ONE, 2012).
